Measured values taken from patent US20150344570A1 (published 2015).

T1: FcγRIIb extracellular domain with C-terminal His tag (human, UniProt P31994 43-217)
T1 construct: extracellular domain; Soluble receptor expressed in FreeStyle293 cells, used as analyte in Biacore; also called FcgRIIb; 2b
T1 sequence (looked up): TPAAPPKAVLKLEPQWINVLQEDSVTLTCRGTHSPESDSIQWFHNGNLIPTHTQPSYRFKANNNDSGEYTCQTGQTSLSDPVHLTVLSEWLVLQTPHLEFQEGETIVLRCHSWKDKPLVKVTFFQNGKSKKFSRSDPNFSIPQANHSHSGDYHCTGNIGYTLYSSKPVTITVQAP

B1: GpH7-A5/GpH7-B3 variant I332_01G/GpL16-k0 (antibody, human IgG1, kappa)
heavy 1: not shown
heavy 2: not shown
light: DIVMTQSPLSLPVTPGEPASISCQASESLVHSNRNTYLHWYLQKPGQSPQLLIYKVSNRFSGVPDRFSGSGSGTDFTLKISRVEAEDVGVYYCSQNTHVPPTFGQGTKVEIERTVAAPSVFIFPPSDEQLKSGTASVVCLLNNFYPREAKVQWKVDNALQSGNSQESVTEQDSKDSTYSLSSTLTLSKADYEKHKVYACEVTHQGLSSPVTKSFNRGEC
notes: Heterodimerized anti-glypican-3 IgG1; mutation in the GpH7-B3 chain only; also called He Ab
B2: GpH7-A5/GpH7-B3 variant K334_05P/GpL16-k0 (antibody, human IgG1, kappa)
heavy 1: not shown
heavy 2: not shown
light: B1 light
notes: as for B1
B3: GpH7-A5/GpH7-B3 variant Q295_13S/GpL16-k0 (antibody, human IgG1, kappa)
heavy 1: not shown
heavy 2: not shown
light: B1 light
notes: as for B1
B4: GpH7-A5/GpH7-B3 variant S324_12R/GpL16-k0 (antibody, human IgG1, kappa)
heavy 1: not shown
heavy 2: not shown
light: B1 light
notes: as for B1
B5: GpH7-A5/GpH7-B3 variant I332_12R/GpL16-k0 (antibody, human IgG1, kappa)
heavy 1: not shown
heavy 2: not shown
light: B1 light
notes: as for B1
B6: GpH7-A5/GpH7-B3 variant Q295_18N/GpL16-k0 (antibody, human IgG1, kappa)
heavy 1: not shown
heavy 2: not shown
light: B1 light
notes: as for B1
B7: GpH7-A5/GpH7-B3 variant S324_01G/GpL16-k0 (antibody, human IgG1, kappa)
heavy 1: not shown
heavy 2: not shown
light: B1 light
notes: as for B1
B8: GpH7-A5/GpH7-B3 variant S298_03V/GpL16-k0 (antibody, human IgG1, kappa)
heavy 1: not shown
heavy 2: not shown
light: B1 light
notes: as for B1
B9: GpH7-A5/GpH7-B3 variant S324_19Q/GpL16-k0 (antibody, human IgG1, kappa)
heavy 1: not shown
heavy 2: not shown
light: B1 light
notes: as for B1
B10: GpH7-A5/GpH7-B3 variant S324_10E/GpL16-k0 (antibody, human IgG1, kappa)
heavy 1: not shown
heavy 2: not shown
light: B1 light
notes: as for B1
B11: GpH7-A5/GpH7-B3 variant S298_14T/GpL16-k0 (antibody, human IgG1, kappa)
heavy 1: not shown
heavy 2: not shown
light: B1 light
notes: as for B1
B12: GpH7-A5/GpH7-B3 variant P329_02A/GpL16-k0 (antibody, human IgG1, kappa)
heavy 1: not shown
heavy 2: not shown
light: B1 light
notes: as for B1
B13: GpH7-A5/GpH7-B3 variant I332_10E/GpL16-k0 (antibody, human IgG1, kappa)
heavy 1: not shown
heavy 2: not shown
light: B1 light
notes: as for B1
B14: GpH7-A5/GpH7-B3 variant K334_02A/GpL16-k0 (antibody, human IgG1, kappa)
heavy 1: not shown
heavy 2: not shown
light: B1 light
notes: as for B1
B15: GpH7-A5/GpH7-B3 variant S298_09D/GpL16-k0 (antibody, human IgG1, kappa)
heavy 1: not shown
heavy 2: not shown
light: B1 light
notes: as for B1
B16: GpH7-A5/GpH7-B3 variant P329_12R/GpL16-k0 (antibody, human IgG1, kappa)
heavy 1: not shown
heavy 2: not shown
light: B1 light
notes: as for B1
B17: GpH7-A5/GpH7-B3 variant P329_11K/GpL16-k0 (antibody, human IgG1, kappa)
heavy 1: not shown
heavy 2: not shown
light: B1 light
notes: as for B1
B18: GpH7-A5/GpH7-B3 variant S324_02A/GpL16-k0 (antibody, human IgG1, kappa)
heavy 1: not shown
heavy 2: not shown
light: B1 light
notes: as for B1
B19: GpH7-A5/GpH7-B3 variant S324_16H/GpL16-k0 (antibody, human IgG1, kappa)
heavy 1: not shown
heavy 2: not shown
light: B1 light
notes: as for B1
B20: GpH7-A5/GpH7-B3 variant K334_07I/GpL16-k0 (antibody, human IgG1, kappa)
heavy 1: not shown
heavy 2: not shown
light: B1 light
notes: as for B1
B21: GpH7-A5/GpH7-B3 variant Y296_20W/GpL16-k0 (antibody, human IgG1, kappa)
heavy 1: not shown
heavy 2: not shown
light: B1 light
notes: as for B1
B22: GpH7-A5/GpH7-B3 variant K334_01G/GpL16-k0 (antibody, human IgG1, kappa)
heavy 1: not shown
heavy 2: not shown
light: B1 light
notes: as for B1
B23: GpH7-A5/GpH7-B3 variant I332_09D/GpL16-k0 (antibody, human IgG1, kappa)
heavy 1: not shown
heavy 2: not shown
light: B1 light
notes: as for B1
B24: GpH7-A5/GpH7-B3 variant K334_08L/GpL16-k0 (antibody, human IgG1, kappa)
heavy 1: not shown
heavy 2: not shown
light: B1 light
notes: as for B1
B25: GpH7-A5/GpH7-B3 variant S298_16H/GpL16-k0 (antibody, human IgG1, kappa)
heavy 1: not shown
heavy 2: not shown
light: B1 light
notes: as for B1
B26: GpH7-A5/GpH7-B3 variant S298_15Y/GpL16-k0 (antibody, human IgG1, kappa)
heavy 1: not shown
heavy 2: not shown
light: B1 light
notes: as for B1
B27: GpH7-A5/GpH7-B3 variant Q295_16H/GpL16-k0 (antibody, human IgG1, kappa)
heavy 1: not shown
heavy 2: not shown
light: B1 light
notes: as for B1
B28: GpH7-A5/GpH7-B3 variant K334_04F/GpL16-k0 (antibody, human IgG1, kappa)
heavy 1: not shown
heavy 2: not shown
light: B1 light
notes: as for B1
B29: GpH7-A5/GpH7-B3 variant S324_11K/GpL16-k0 (antibody, human IgG1, kappa)
heavy 1: not shown
heavy 2: not shown
light: B1 light
notes: as for B1
B30: GpH7-A5/GpH7-B3 variant K334_09D/GpL16-k0 (antibody, human IgG1, kappa)
heavy 1: not shown
heavy 2: not shown
light: B1 light
notes: as for B1
B31: GpH7-A5/GpH7-B3 variant K334_06M/GpL16-k0 (antibody, human IgG1, kappa)
heavy 1: not shown
heavy 2: not shown
light: B1 light
notes: as for B1
B32: GpH7-A5/GpH7-B3 variant S298_07I/GpL16-k0 (antibody, human IgG1, kappa)
heavy 1: not shown
heavy 2: not shown
light: B1 light
notes: as for B1
B33: GpH7-A5/GpH7-B3 variant S298_04F/GpL16-k0 (antibody, human IgG1, kappa)
heavy 1: not shown
heavy 2: not shown
light: B1 light
notes: as for B1
B34: GpH7-A5/GpH7-B3 variant Q295_14T/GpL16-k0 (antibody, human IgG1, kappa)
heavy 1: not shown
heavy 2: not shown
light: B1 light
notes: as for B1

target: T2, FcγRIIIa extracellular domain with C-terminal His tag (human, UniProt P08637 17-208); test: SPR (Biacore); He/Con_3a divided by He/Con_2b (FcγRIIIa against FcγRIIb)
T2 construct: extracellular domain; also called FcgRIIIa; 3a
Protocol: (§1) The heterodimerized antibodies He Abs in which one of the H chains was introduced with an alteration were assayed for their binding activities to each activating FcγR and inhibitory FcγR according to the method described in Example 4. […] The activating FcγRs in FIGS. 26, 27, 28, and 29 are FcγRIa, FcγRIIa (R), FcγRIIa (H), and FcγRIIIa, respectively.
(§2) Analysis of interaction between objective antibody and the FcγR was carried out using Biacore T100 (GE Healthcare). HBS-EP+ (GE Healthcare) was used as the running buffer, and the measurement temperature was set to 25° C. Chips produced by immobilizing the antigen peptide by the amine coupling method to a Series S Sencor Chip CM5 (GE Healthcare), or alternatively, chips produced by allowing preliminarily biotinylated antigen peptides to interact with and immobilize onto a Series S Sensor Chip SA (certified) (GE Healthcare) were used. Antibodies of interest were captured onto an antigen peptide-immobilized chip, and allowed to interact to each FcγR diluted with running buffer. To regenerate and repeatedly use the chip, the antibodies captured on the chip were washed off by reacting 10 mM glycine-HCl, pH 1.5.

T2 sequence (P08637 17-208): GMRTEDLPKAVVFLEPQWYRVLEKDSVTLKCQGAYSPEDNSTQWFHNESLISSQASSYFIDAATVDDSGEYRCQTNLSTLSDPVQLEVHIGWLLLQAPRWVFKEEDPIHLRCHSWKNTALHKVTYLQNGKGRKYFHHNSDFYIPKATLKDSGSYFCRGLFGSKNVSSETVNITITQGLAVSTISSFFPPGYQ

Row | He_3a/2b (IIIa/IIb) | Binder
1 | 1.27 ratio | B1
2 | 1.27 ratio | B2
3 | 1.51 ratio | B3
4 | 1.43 ratio | B4
5 | 1.55 ratio | B5
6 | 1.26 ratio | B6
7 | 1.29 ratio | B7
8 | 1.69 ratio | B8
9 | 1.33 ratio | B9
10 | 1.28 ratio | B10
11 | 1.45 ratio | B11
12 | 1.39 ratio | B12
13 | 1.63 ratio | B13
14 | 1.37 ratio | B14
15 | 1.38 ratio | B15
16 | 1.52 ratio | B16
17 | 1.76 ratio | B17

Row | He_3a/2b (IIIa/IIb) | Binder
18 | 1.33 ratio | B18
19 | 1.24 ratio | B19
20 | 1.27 ratio | B20
21 | 1.31 ratio | B21
22 | 1.31 ratio | B22
23 | 1.41 ratio | B23
24 | 1.35 ratio | B24
25 | 1.2 ratio | B25
26 | 1.39 ratio | B26
27 | 1.22 ratio | B27
28 | 1.33 ratio | B28
29 | 1.21 ratio | B29
30 | 1.69 ratio | B30
31 | 1.33 ratio | B31
32 | 1.37 ratio | B32
33 | 1.26 ratio | B33
34 | 1.72 ratio | B34

target: T1, FcγRIIb extracellular domain with …; test: SPR (Biacore), antibody captured on antigen peptide chip, FcγR as analyte; GpH7-A5/GpH7-B3/GpL16-k0 = 100
Protocol: as §1, §2

Row | He/Con_2b (relative binding activity) | Binder
35 | 87.1 % of control | B1
36 | 105 % of control | B2
37 | 56.9 % of control | B3
38 | 63.1 % of control | B4
39 | 48.9 % of control | B5
40 | 64.9 % of control | B6
41 | 81.1 % of control | B7
42 | 64.5 % of control | B8
43 | 66.8 % of control | B9
44 | 77.4 % of control | B10
45 | 77.9 % of control | B11
46 | 40.5 % of control | B12
47 | 142 % of control | B13
48 | 108 % of control | B14
49 | 48.3 % of control | B15
50 | 17.6 % of control | B16
51 | 16.9 % of control | B17

Row | He/Con_2b (relative binding activity) | Binder
52 | 78.3 % of control | B18
53 | 83.5 % of control | B19
54 | 119 % of control | B20
55 | 103 % of control | B21
56 | 92.5 % of control | B22
57 | 147 % of control | B23
58 | 106 % of control | B24
59 | 63.5 % of control | B25
60 | 61.4 % of control | B26
61 | 62.7 % of control | B27
62 | 111 % of control | B28
63 | 68.6 % of control | B29
64 | 94.8 % of control | B30
65 | 109 % of control | B31
66 | 70.6 % of control | B32
67 | 65.4 % of control | B33
68 | 66.8 % of control | B34

target: T2, FcγRIIIa extracellular domain with …; test: as above
Protocol: as §1, §2

Row | He/Con_3a (relative binding activity) | Binder
69 | 111 % of control | B1
70 | 134 % of control | B2
71 | 86.1 % of control | B3
72 | 90.3 % of control | B4
73 | 75.9 % of control | B5
74 | 81.6 % of control | B6
75 | 105 % of control | B7
76 | 109 % of control | B8
77 | 88.5 % of control | B9
78 | 99.3 % of control | B10
79 | 113 % of control | B11
80 | 56.4 % of control | B12
81 | 233 % of control | B13
82 | 147 % of control | B14
83 | 66.7 % of control | B15
84 | 26.7 % of control | B16
85 | 29.6 % of control | B17

Row | He/Con_3a (relative binding activity) | Binder
86 | 104 % of control | B18
87 | 104 % of control | B19
88 | 151 % of control | B20
89 | 135 % of control | B21
90 | 121 % of control | B22
91 | 207 % of control | B23
92 | 143 % of control | B24
93 | 76.5 % of control | B25
94 | 85.6 % of control | B26
95 | 76.4 % of control | B27
96 | 148 % of control | B28
97 | 83 % of control | B29
98 | 160 % of control | B30
99 | 144 % of control | B31
100 | 96.4 % of control | B32
101 | 82.5 % of control | B33
102 | 115 % of control | B34
